According to patent publication US20160280792A1 (Kyowa Kirin, published 2016):

Assays:
Assay in all cases: flow cytometry, labelled antibody at 1 µg/ml, HEK293T cells expressing the construct
[1] = target: T1, IL-3Rα/GM-CSFRα chimeric protein, region 7 (192-GIPCTDK-198) of IL-3Rα replaced by GM-CSFRα sequence, on … (human, UniProt P26951 19-378)
T1 construct: also called Region 7 (B)
T1 chain: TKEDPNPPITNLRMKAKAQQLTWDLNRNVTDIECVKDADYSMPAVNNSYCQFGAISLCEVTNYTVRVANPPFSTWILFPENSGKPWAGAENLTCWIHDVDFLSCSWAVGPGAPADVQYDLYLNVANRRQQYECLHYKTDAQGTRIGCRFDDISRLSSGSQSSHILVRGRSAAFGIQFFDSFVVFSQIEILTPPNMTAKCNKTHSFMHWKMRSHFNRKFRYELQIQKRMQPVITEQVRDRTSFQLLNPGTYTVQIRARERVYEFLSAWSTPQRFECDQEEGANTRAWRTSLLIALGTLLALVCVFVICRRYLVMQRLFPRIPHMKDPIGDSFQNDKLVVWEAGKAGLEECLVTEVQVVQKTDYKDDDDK

[2] = target: T2, IL-3Rα/GM-CSFRα chimeric protein, region 3 (91-STWILFPE-98) of IL-3Rα replaced by GM-CSFRα sequence, on … (human, UniProt P26951 19-378)
T2 construct: also called Region 3 (A)
T2 chain: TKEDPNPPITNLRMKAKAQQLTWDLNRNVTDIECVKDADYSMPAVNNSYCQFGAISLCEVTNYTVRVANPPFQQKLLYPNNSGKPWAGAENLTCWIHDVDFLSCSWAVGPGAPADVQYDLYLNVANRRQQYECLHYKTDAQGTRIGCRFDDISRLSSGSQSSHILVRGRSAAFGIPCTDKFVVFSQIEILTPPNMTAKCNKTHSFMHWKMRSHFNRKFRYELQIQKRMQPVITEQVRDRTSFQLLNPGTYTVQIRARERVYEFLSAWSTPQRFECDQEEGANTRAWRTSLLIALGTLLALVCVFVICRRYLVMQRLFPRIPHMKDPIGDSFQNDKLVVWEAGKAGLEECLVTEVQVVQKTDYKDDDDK

[3] = target: T3, IL-3Rα/GM-CSFRα chimeric protein, region 6 (182-ILVRGRS-188) of IL-3Rα replaced by GM-CSFRα sequence, on … (human, UniProt P26951 19-378)
T3 construct: also called Region 6 (B)
T3 chain: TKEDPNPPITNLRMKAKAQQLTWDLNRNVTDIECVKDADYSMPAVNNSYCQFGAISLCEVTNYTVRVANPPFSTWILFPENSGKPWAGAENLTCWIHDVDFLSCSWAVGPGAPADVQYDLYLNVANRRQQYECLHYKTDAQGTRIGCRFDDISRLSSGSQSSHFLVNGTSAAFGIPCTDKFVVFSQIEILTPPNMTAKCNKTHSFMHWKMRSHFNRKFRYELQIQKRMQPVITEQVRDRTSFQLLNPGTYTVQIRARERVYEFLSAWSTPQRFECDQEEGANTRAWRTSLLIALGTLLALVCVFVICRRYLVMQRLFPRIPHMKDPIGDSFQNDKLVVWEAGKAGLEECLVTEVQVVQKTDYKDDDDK

[4] = target: T4, IL-3Rα/GM-CSFRα chimeric protein, region 4 (97-…-104) of IL-3Rα replaced by GM-CSFRα sequence, on HEK293T … (human, UniProt P26951 19-378)
T4 construct: also called Region 4 (A-B)
T4 chain: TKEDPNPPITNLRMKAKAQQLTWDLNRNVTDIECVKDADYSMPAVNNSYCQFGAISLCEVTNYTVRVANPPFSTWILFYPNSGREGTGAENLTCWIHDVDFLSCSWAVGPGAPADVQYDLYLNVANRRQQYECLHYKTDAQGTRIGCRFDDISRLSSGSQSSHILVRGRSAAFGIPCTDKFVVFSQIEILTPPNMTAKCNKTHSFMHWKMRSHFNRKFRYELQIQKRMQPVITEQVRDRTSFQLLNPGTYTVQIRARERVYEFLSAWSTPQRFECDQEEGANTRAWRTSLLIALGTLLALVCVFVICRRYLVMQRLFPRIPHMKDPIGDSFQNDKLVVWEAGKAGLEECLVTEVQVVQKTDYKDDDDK

binding result [1]: no binding (tested: 1 µg/ml) | binding result [2]: no binding (tested: 1 µg/ml) | binding result [3]: no binding (tested: 1 µg/ml) | binding result [4]: no binding (tested: 1 µg/ml)
B1: Old19 anti-human IL-3Rα human antibody (antibody, human IgG1, V domains shown)
VH: QVQLVQSGAEVKKPGSSVKVSCKASGGTFSSYAISWVRQAPGQGLEWVGGIIPIFGTANYAQKFQGRVTITADESTSTAYMELSSLRSEDTAVYYCARGHKYGPYYFDYWGQGTLVTVSS
VL: DIQMTQSPSSLSASVGDRVTITCRASQGISSWLAWYQQKPEKAPKSLIYAASSLQSGVPSRFSGSGSGTDFTLTISSLQPEDFATYYCQQYNSYPRTFGQGTKVEIK
notes: Human antibody; recombinant form in N5KG1-Val Lark vector (human IgG1, kappa)
